According to patent EP3922993A1:

Biological target: T1, Recombinant GST-tagged hDPP3 (human) (UniProt Q9NY33)
T1 sequence: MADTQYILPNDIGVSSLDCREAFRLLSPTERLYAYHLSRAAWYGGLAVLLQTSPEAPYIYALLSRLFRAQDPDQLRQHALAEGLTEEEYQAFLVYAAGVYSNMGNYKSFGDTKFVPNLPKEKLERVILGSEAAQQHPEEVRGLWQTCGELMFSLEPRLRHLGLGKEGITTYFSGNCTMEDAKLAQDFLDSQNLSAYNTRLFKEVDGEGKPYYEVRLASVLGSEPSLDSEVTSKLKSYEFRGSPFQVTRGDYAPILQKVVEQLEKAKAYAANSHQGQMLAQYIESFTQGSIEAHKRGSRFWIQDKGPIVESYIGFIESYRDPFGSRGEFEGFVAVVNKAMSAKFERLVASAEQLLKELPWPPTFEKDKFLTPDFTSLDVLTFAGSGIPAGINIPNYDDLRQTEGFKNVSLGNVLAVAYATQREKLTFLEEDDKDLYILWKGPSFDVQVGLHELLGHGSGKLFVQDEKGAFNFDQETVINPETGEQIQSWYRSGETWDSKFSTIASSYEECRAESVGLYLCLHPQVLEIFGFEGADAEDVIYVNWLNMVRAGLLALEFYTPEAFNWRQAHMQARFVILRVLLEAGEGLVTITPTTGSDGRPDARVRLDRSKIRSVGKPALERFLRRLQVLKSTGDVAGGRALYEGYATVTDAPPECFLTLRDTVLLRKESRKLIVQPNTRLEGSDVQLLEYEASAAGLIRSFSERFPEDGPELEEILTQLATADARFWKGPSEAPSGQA
Experiment: cell-based or functional assay

B1: anti-DPP3 antibody clone 2555 (antibody, from another filing, V domains shown)
VH: EVQLQQSGPELVKPGASVKISCKASGYSFTGYYIHWVKQSPENSLEWIGEINPSTGGTNYNQKFKGKATLTVDKSSSTAYMQLKSLTSEESAVYYCTRSYYGIYSWFAYWGQGTLVTVSA
VL: DIKMTQSPSSMYASLGERVTITCKASQDIKSYLSWYQQKPWKSPKTLIYYATSLADGVPSRFSGSGSGQDYSLTISSLESDDTATYYCLQHGESPRTFGGGTKLEIK
For B1, which Max inhibition of hDPP3 is on record?
The Max inhibition of hDPP3 was 25%.
